Data from US20140302035A1 (MERRIMACK PHARMACEUTICALS, published 2014).

B1: Ab#3 (bispecific antibody, human IgG1, kappa)
heavy: QLQLQESGPGLVKPSETLSLTCTVSGGSISSSVYYWSWIRQPPGKGLEWIGVIYPSGNTYYSPSLKSRVTISVDTSKNQFSLKLSSVTAADTAVYYCARTIYDLFDIWGQGTMVTVSSASTKGPSVFPLAPSSKSTSGGTAALGCLVKDYFPEPVTVSWNSGALTSGVHTFPAVLQSSGLYSLSSVVTVPSSSLGTQTYICNVNHKPSNTKVDKKVEPKSCDKTHTCPSCPAPEFLGGPSVFLFPPKPKDTLMISRTPEVTCVVVDVSQEDPEVQFNWYVDGVEVHNAKTKPREEQFNSKYRVVSVLTVLHQDWLNGKEYKCKVSNKGLPSSIEKTISKAKGQPREPQVYTLPPSREEMTKNQVSLSCAVKGFYPSDIAVEWESNGQPENNYKTTPPVLDSDGSFFLVSKLTVDKSRWQQGNVFSCSVMHEALHNHYTQKSLSLSKSCDKTGGGGSGGGGSGGGGSGGGGSGGGGSGGGGSGGGGSGGGGSCPSCPAPEFLGGPSVFLFPPKPKDTLMISRTPEVTCVVVDVSQEDPEVQFNWYVDGVEVHNAKTKPREEQFNSDYRVVSVLTVLHQDWLNGKEYKCKVSNKGLPSSIEKTISKAKGQPREPQVYTLPPSREEMTKNQVSLWCLVKGFYPSDIAVEWESNGQPENNYKTTPPVLDSDGSFFLYSKLTVDKSRWQQGNVFSCSVMHEALHNHYTQKSLSLSGECGGGGSGGGGSQVQLVQSGSELKKPGESVKVSCKASGYTFTNYGMNWVRQAPGQGLKWMGWINTYTGESTYADDFKGRFAFSLDTSASTAYLQISSLKAEDTAVYFCARFAIKGDYWGQGTLVTVSSASTGGGGSGGGGSGGGGSGGGGSDIVMTQSPLSLPVTPGEPASISCRSTKSLLHSDGITYLYWYLQKPGQSPQLLIYQLSNLASGVPDRFSSSGSGTDFTLKISRVEAEDEGVYYCAQNLEIPRTFGQGTKVEIK
light: DIQMTQSPSSVSASVGDRVTITCRASQGISSWLAWYQQKPGKAPKLLIYAASSLQSGVPSRFSGSGSGTDFTLTISSLQPEDFATYYCLQANSFPPTFGGGTKVEIKRTVAAPSVFIFPPSDEQLKSGTASVVCLLNNFYPREAKVQWKVDNALQSGNSQESVTEQDSKDSTYSLSSTLTLSKADYEKHKVYACEVTHQGLSSPVTKSFNRGEC
notes: Anti-c-Met Fab / tandem Fc / anti-EpCAM scFv TFcBA; also called Antibody #3
B2: Ab#4 (bispecific antibody, human IgG1, kappa)
heavy: QLQLQESGPGLVKPSETLSLTCTVSGGSISSSVYYWSWIRQPPGKGLEWIGVIYPSGNTYYSPSLKSRVTISVDTSKNQFSLKLSSVTAADTAVYYCARTIYDLFDIWGQGTMVTVSSASTKGPSVFPLAPSSKSTSGGTAALGCLVKDYFPEPVTVSWNSGALTSGVHTFPAVLQSSGLYSLSSVVTVPSSSLGTQTYICNVNHKPSNTKVDKKVEPKSCDKTHTCPSCPAPEFLGGPSVFLFPPKPKDTLMISRTPEVTCVVVDVSQEDPEVQFNWYVDGVEVHNAKTKPREEQFNSKYRVVSVLTVLHQDWLNGKEYKCKVSNKGLPSSIEKTISKAKGQPREPQVYTLPPSREEMTKNQVSLSCAVKGFYPSDIAVEWESNGQPENNYKTTPPVLDSDGSFFLVSKLTVDKSRWQQGNVFSCSVMHEALHNHYTQKSLSLSKSCDKTGGGGSGGGGSGGGGSGGGGSGGGGSGGGGSGGGGSGGGGSCPSCPAPEFLGGPSVFLFPPKPKDTLMISRTPEVTCVVVDVSQEDPEVQFNWYVDGVEVHNAKTKPREEQFNSDYRVVSVLTVLHQDWLNGKEYKCKVSNKGLPSSIEKTISKAKGQPREPQVYTLPPSREEMTKNQVSLWCLVKGFYPSDIAVEWESNGQPENNYKTTPPVLDSDGSFFLYSKLTVDKSRWQQGNVFSCSVMHEALHNHYTQKSLSLSGECGGGGSGGGGSDIVMTQSPLSLPVTPGEPASISCRSTKSLLHSDGITYLYWYLQKPGQSPQLLIYQLSNLASGVPDRFSSSGSGTDFTLKISRVEAEDEGVYYCAQNLEIPRTFGQGTKVEIKRTGGGGSGGGGSGGGGSGGGGSGQVQLVQSGSELKKPGESVKVSCKASGYTFTNYGMNWVRQAPGQGLKWMGWINTYTGESTYADDFKGRFAFSLDTSASTAYLQISSLKAEDTAVYFCARFAIKGDYWGQGTLVTVSS
light: B1 light
notes: Anti-c-Met Fab / tandem Fc / anti-EpCAM scFv TFcBA; also called Antibody #4

Target: T1, Human EpCAM-Fc-his tagged (human)
T1 construct: also called Recombinant polyhistidine-tagged EpCAM-Fc; recombinant EpCAM
T1 sequence (chain, as listed by the source): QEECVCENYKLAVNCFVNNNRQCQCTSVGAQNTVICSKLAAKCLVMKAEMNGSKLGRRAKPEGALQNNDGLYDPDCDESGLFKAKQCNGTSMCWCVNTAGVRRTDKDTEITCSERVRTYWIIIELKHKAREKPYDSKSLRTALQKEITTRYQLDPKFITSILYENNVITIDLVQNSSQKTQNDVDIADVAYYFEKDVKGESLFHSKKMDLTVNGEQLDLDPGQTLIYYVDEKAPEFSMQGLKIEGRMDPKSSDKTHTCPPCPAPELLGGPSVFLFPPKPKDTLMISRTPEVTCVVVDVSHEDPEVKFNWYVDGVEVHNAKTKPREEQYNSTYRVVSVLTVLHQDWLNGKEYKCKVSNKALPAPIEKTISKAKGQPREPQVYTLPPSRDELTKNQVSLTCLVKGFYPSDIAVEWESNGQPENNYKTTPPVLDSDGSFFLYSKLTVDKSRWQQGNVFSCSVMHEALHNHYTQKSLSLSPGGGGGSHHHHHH
Assay: BLI (ForteBio Octet), antibody loaded on Protein A tips, recombinant polyhistidine-tagged EpCAM-Fc in solution, 1:1 model
Protocol: For Octet analysis, all reagents and samples are brought to room temperature. Protein A sensor tips (ForteBio, #18-5010) are hydrated for 10 minutes in 1×PBS. Assay steps include: 1-2 minutes of equilibration in 1×PBS, 4 minutes of antibody loading (concentration of 50 μg/ml in 1×PBS), 1-2 minutes of baseline stabilization, 4 minutes of antibody:antigen association, and 4 minutes of antibody:antigen dissociation. 1×PBS is used as the matrix throughout. Data are analyzed with Octet Data Analysis software, processed, and fit to a 1:1 binding model to determine kinetic parameters (Kd, kₒₙ and kdiss).
Table A-2 describes approximate EpCAM binding affinity and dissociation rate as determined for Ab#1, Ab#2, Ab#3, Ab#4, Ab#5, Ab#6, Ab#7, Ab#8, Ab#9, Ab#10, Ab#11, Ab#12, and Ab#13.

Binder	Kd [nM]	koff [s⁻¹]
B1	17	0.00174
B2	19.4	0.00174
